Values of other authors as cited in article PMC7692841.

How the values were obtained:
[1] = biological target: ATRIP phosphopeptide (Homo sapiens) (UniProt Q8WXE1); assay: ITC
[2] = biological target: BACH1 phosphopeptide (Homo sapiens) (UniProt Q9BX63); assay: ITC
[3] = biological target: ABRAXAS phosphopeptide (Homo sapiens) (UniProt Q6UWZ7); assay: ITC
[4] = biological target: BRCA1-A complex (Homo sapiens) (UniProt Q6UWZ7)

Chain of BRCA1 BRCT (P38398 1646-1859): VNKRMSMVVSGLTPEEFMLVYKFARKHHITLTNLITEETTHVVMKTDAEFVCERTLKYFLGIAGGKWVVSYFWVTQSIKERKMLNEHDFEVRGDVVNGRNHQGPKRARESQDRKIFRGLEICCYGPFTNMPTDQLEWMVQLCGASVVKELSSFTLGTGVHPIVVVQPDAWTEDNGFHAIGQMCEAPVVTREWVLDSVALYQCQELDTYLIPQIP
Chain of ATRIP phosphopeptide (Homo sapiens) (Q8WXE1 whole entry): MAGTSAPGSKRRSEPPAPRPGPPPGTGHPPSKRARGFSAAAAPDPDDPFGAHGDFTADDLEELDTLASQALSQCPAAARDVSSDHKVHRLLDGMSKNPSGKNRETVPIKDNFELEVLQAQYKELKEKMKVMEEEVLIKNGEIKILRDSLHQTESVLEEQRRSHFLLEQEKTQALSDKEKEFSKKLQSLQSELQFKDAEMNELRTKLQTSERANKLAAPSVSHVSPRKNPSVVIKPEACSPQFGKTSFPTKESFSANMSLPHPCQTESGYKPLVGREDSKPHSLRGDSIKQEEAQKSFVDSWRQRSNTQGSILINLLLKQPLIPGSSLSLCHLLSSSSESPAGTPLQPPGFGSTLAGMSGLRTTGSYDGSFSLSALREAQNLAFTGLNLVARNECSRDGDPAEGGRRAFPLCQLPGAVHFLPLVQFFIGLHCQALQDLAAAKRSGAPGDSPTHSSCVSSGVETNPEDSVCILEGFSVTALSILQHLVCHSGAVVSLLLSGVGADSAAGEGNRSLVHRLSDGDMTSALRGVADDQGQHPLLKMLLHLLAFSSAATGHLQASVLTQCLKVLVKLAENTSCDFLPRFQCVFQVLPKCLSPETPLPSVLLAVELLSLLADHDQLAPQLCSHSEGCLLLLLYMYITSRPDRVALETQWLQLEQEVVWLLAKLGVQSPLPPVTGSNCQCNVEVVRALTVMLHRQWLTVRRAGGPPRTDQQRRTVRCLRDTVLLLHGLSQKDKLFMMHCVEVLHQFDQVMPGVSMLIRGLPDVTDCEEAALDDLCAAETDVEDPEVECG
Chain of BACH1 phosphopeptide (Homo sapiens) (Q9BX63 whole entry): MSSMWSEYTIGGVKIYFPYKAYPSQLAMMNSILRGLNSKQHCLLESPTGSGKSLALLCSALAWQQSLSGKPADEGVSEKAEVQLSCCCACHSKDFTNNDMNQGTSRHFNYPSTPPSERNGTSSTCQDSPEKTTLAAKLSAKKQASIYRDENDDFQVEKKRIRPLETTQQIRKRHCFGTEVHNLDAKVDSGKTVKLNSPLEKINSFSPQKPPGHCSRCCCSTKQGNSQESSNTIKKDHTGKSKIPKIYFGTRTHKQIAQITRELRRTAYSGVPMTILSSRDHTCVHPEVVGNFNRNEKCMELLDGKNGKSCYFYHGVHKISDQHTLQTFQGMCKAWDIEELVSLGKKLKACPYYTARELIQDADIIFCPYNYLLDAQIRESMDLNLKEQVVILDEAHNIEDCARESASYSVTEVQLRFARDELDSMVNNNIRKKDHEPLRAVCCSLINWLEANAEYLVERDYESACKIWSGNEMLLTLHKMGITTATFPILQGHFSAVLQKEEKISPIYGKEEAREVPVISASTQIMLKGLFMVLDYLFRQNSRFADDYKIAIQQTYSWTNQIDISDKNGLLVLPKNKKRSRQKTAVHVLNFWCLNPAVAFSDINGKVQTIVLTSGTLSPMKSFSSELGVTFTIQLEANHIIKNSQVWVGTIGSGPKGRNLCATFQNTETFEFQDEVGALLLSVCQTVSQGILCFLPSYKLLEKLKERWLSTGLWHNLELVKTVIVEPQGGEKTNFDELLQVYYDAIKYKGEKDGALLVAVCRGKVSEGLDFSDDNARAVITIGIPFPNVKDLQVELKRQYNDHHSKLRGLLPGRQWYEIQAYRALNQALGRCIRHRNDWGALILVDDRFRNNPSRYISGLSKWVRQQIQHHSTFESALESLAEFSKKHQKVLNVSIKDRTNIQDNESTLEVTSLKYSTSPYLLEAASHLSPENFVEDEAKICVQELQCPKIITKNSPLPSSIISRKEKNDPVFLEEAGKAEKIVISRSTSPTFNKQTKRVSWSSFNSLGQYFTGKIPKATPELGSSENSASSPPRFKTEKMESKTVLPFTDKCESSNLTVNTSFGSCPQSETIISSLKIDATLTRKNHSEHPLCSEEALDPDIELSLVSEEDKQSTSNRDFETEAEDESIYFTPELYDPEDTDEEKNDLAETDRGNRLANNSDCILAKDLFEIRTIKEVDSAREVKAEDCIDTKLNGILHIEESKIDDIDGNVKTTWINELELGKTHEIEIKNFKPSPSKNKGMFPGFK
Chain of ABRAXAS phosphopeptide (Homo sapiens) (Q6UWZ7 whole entry): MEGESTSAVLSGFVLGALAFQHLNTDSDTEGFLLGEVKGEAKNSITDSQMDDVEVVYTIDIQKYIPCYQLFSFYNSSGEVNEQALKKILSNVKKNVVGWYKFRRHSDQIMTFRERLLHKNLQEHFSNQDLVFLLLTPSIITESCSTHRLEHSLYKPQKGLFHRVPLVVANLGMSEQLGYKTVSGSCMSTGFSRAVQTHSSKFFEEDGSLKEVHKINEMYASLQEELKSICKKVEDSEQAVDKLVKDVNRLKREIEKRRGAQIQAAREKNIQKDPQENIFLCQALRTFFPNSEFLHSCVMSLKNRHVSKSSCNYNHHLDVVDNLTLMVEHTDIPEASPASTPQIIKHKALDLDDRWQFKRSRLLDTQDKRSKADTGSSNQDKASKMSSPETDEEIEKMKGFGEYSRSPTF

In the case of BRCA1 BRCT (from UniProt P38398), the Kd [1] is given as 28200 nM, the Kd [2] is given as 700 nM and the Kd [3] is given as 1200 nM. The Kd [4] was 80 nM.
